Compound in data set [1]: CC(C)NCCCn1c(Sc2cc3c(cc2I)OCO3)nc2c(N)ncnc21
Put plainly: Competitive inhibition of recombinant wild-type human TRAP1 ATPase activity expressed in Escherichia coli BL21 (DE3) assessed as substrate Km at 5 uM preincubated for 0.5 hrs followed by varying levels of ATP addition and measured after 3 hrs using PiColorLock Gold reagent by colorimetric assay-based Lineweaver-Burk plot analysis (reference value: 84.42 +/- 3.84 uM).

Compound in data set [2]: CC(C)NCCCn1c(Sc2cc3c(cc2I)OCO3)nc2c(N)ncnc21
Nature of the data set: Competitive inhibition of recombinant wild-type human TRAP1 ATPase activity expressed in Escherichia coli BL21 (DE3) assessed as substrate Kcat at 5 uM preincubated for 0.5 hrs followed by varying levels of ATP addition and measured after 3 hrs using PiColorLock Gold reagent by colorimetric assay-based Lineweaver-Burk plot analysis (reference value: 0.87 +/- 0.01 […]).

Compound in data set [3]: CC(C)NCCCn1c(Sc2cc3c(cc2I)OCO3)nc2c(N)ncnc21
Nature of the data set: Competitive inhibition of recombinant wild-type human TRAP1 ATPase activity expressed in Escherichia coli BL21 (DE3) assessed as ratio of substrate Kcat to Km at 5 uM preincubated for 0.5 hrs followed by varying levels of ATP addition and measured after 3 hrs using PiColorLock Gold reagent by colorimetric assay-based Lineweaver-Burk plot analysis (reference value: 10.3 +/- 0.54 10^-5 /s/uM).

Substrate in data set [4]: Nc1ncnc2c1nc(Sc1cc3c(cc1I)OCO3)n2CCCCCCCCCC[P+](c1ccccc1)(c1ccccc1)c1ccccc1
Put plainly: Allosteric modulation of recombinant wild-type human TRAP1 ATPase activity expressed in Escherichia coli BL21 (DE3) assessed as substrate Km at 5 uM preincubated for 0.5 hrs followed by varying levels of ATP addition and measured after 3 hrs using PiColorLock Gold reagent by colorimetric assay-based Lineweaver-Burk plot analysis (reference value: 84.42 +/- 3.84 uM).

Substrate in data set [5]: Nc1ncnc2c1nc(Sc1cc3c(cc1I)OCO3)n2CCCCCCCCCC[P+](c1ccccc1)(c1ccccc1)c1ccccc1
Nature of the data set: Allosteric modulation of recombinant wild-type human TRAP1 ATPase activity expressed in Escherichia coli BL21 (DE3) assessed as substrate Kcat at 5 uM preincubated for 0.5 hrs followed by varying levels of ATP addition and measured after 3 hrs using PiColorLock Gold reagent by colorimetric assay-based Lineweaver-Burk plot analysis (reference value: 0.87 +/- 0.01 […]).

Substrate in data set [6]: Nc1ncnc2c1nc(Sc1cc3c(cc1I)OCO3)n2CCCCCCCCCC[P+](c1ccccc1)(c1ccccc1)c1ccccc1
Nature of the data set: Allosteric modulation of recombinant wild-type human TRAP1 ATPase activity expressed in Escherichia coli BL21 (DE3) assessed as ratio of substrate Kcat to Km at 5 uM preincubated for 0.5 hrs followed by varying levels of ATP addition and measured after 3 hrs using PiColorLock Gold reagent by colorimetric assay-based Lineweaver-Burk plot analysis (reference value: 10.3 +/- 0.54 10^-5 /s/uM).

B1: Heat shock protein 75 kDa, mitochondrial (Homo sapiens), Q12931 (protein)
chain: MARELRALLLWGRRLRPLLRAPALAAVPGGKPILCPRRTTAQLGPRRNPAWSLQAGRLFSTQTAEDKEEPLHSIISSTESVQGSTSKHEFQAETKKLLDIVARSLYSEKEVFIRELISNASDALEKLRHKLVSDGQALPEMEIHLQTNAEKGTITIQDTGIGMTQEELVSNLGTIARSGSKAFLDALQNQAEASSKIIGQFGVGFYSAFMVADRVEVYSRSAAPGSLGYQWLSDGSGVFEIAEASGVRTGTKIIIHLKSDCKEFSSEARVRDVVTKYSNFVSFPLYLNGRRMNTLQAIWMMDPKDVREWQHEEFYRYVAQAHDKPRYTLHYKTDAPLNIRSIFYVPDMKPSMFDVSRELGSSVALYSRKVLIQTKATDILPKWLRFIRGVVDSEDIPLNLSRELLQESALIRKLRDVLQQRLIKFFIDQSKKDAEKYAKFFEDYGLFMREGIVTATEQEVKEDIAKLLRYESSALPSGQLTSLSEYASRMRAGTRNIYYLCAPNRHLAEHSPYYEAMKKKDTEVLFCFEQFDELTLLHLREFDKKKLISVETDIVVDHYKEEKFEDRSPAAECLSEKETEELMAWMRNVLGSRVTNVKVTLRLDTHPAMVTVLEMGAARHFLRMQQLAKTQEERAQLLQPTLEINPRHALIKKLNQLRASEPGLAQLLVDQIYENAMIAAGLVDDPRAMVGRLNELLVKALERH
As usually defined, the Km is the concentration of substrate that gives half-maximal velocity. On to B1, for which the Km turned out to be 1050 µM in data set [1] and 506 µM in data set [4]. For the same protein, the kcat in data set [2] was 0.8 ×10⁻² /s; in data set [5], 2.51 ×10⁻² /s. In addition, the values for the kcat/Km in data set [3] and in data set [6] were 0.76 ×10⁻⁵ /s/µM and 4.99 ×10⁻⁵ /s/µM, respectively.
